Source: patent US20240002500A1 (GUANGDONG FAPON BIOPHARMA, published 2024)

T1: hTIGIT-hFc (human, UniProt Q495A1 22-141)
T1 construct: also called antigen protein hTIGIT-hFc; human TIGIT recombinant protein carrying a human Fc tag; not shown: human Fc tag
T1 sequence (looked up): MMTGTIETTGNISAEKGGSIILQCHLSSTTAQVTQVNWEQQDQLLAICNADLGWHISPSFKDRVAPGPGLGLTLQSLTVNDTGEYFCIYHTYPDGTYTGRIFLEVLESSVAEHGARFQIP

T2: human Tigit extracellular domain recombinant protein hTigit-his (Acrobiosystem, Cat.TIT-H2H3) (human, UniProt Q495A1 22-141)
T2 construct: extracellular domain; Bought; not shown: his tag
T2 sequence (looked up): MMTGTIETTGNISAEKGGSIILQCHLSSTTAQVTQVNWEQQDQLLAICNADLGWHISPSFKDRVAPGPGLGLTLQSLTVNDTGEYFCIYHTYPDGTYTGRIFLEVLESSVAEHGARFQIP

T3: full-length human TIGIT on cells (human, UniProt Q495A1 22-244)
T3 construct: whole, on cells; The same protein is used for CHO-hTIGIT, PBMC and NK92-hTIGIT; the cells are named under assay; also called CHO-hTIGIT; hTIGIT
T3 sequence (looked up): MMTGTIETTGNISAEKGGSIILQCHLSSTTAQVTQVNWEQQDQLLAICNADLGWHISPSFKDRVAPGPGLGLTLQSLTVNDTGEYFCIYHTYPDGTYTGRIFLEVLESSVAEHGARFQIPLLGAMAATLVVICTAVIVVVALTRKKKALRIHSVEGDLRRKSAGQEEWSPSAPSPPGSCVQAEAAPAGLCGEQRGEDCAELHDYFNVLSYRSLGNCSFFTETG


Tests used:
hTIGIT-hFc = target: T1, hTIGIT-hFc; assay: FACS blocking on CHO-hCD112 cells; span of the fitted curve, unit from the y axis
Protocol: The CHO-engineered cell CHO-hCD112 cells recombinantly expressing full-length human CD112 were counted; centrifugated at 300 g for 5 min; resuspended with an FCM buffer; and cell density was adjusted to 4E+06 cell/mL for later use. […] According to an experimental design, in each well, 50 μL of the antigen protein and 50 μL of the cell (the volume of each cell added into a 96-well V-shaped plate being 2E+05 cell/well) were respectively added in the 96-well V-shaped plate; and incubation was performed in dark on ice for 30 min. Centrifugation (300 g/5 min) was performed; supernatant was discarded; 200 μL of the FCM buffer was added for washing once; centrifugation (300 g/5 min) was performed; and the supernatant was discarded. The antibody was added to the 96-well V-shaped plate (in 100 μL/well); and incubation was performed in dark on ice for 30 min. Centrifugation (300 g/5 min) was performed; supernatant was discarded; 200 μL of the FCM buffer was added for washing once; centrifugation (300 g/5 min) was performed; and the supernatant was discarded. Secondary antibodies (APC anti-human IgG Fc, 1:500 dilution) were added to the 96-well V-shaped plate (in 100 μL/well); and incubation was performed in dark on ice for 30 min. Centrifugation (300 g/5 min) was performed; supernatant was discarded; 200 μL of the FCM buffer was added for washing once; centrifugation (300 g/5 min) was performed; and the supernatant was discarded. 100 μL of the 1×PBS was added for resuspending, and on-machine detection was performed.

[1] = target: T2, human Tigit extracellular domain …; assay: BLI epitope binning (ForteBIO QKe), hTigit-his on anti-Penta-HIS sensor; competitor R0300
Protocol: Epitope competition analysis was performed on an anti-human TIGIT antibody with an MD ForteBIO QKe platform. An experimental method included: a human Tigit extracellular domain recombinant protein hTigit-his (Acrobiosystem, Cat.TIT-H2H3, lot-1336-76GF1-F9) carrying a his tag was diluted with an equilibration buffer (1×PBS+0.02% Tween 20), until the final concentration was 1.5 μg/ml. The anti-human Tigit antibody was diluted with the equilibration buffer (1×PBS+0.02% Tween 20), the final concentration being 5 μg/ml. After an anti-Penta-HIS biosensor (ForteBIO, Cat. 18-5122) was fully hydrated, first the hTigit-his recombinant protein was solidified for 180 seconds, then equilibrated for 30 seconds, and bound to the first anti-human Tigit antibody for 180 seconds, then equilibrated for 30 seconds, and then bound to the second anti-human Tigit antibody, binding time being 300 seconds. The whole reaction was performed at 25° C. and 1000 rpm; and finally, Octet analysis software was used to perform epitope binning analysis.

[2] = target: T3, full-length human TIGIT on cells; assay: FACS titration on CHO-hTIGIT cells; span of the fitted curve, unit from the y axis
Protocol: The CHO-engineered cells CHO-hTIGIT cells recombinantly expressing full-length human TIGIT to be detected were counted, centrifuged at 300 g for 5 min, resuspended in an FCM buffer and cell density was adjusted to 4E+06 cell/mL for later use. A sample to be detected (including a positive control antibody and a mouse monoclonal antibody) was diluted with the FCM buffer to 20 μg/mL, and then the FCM buffer was used to perform 3× serial dilutions of 12 concentration points; and the isotype control antibody was diluted with the FCM buffer to 20 μg/mL. According to an experimental design, in each well, 50 μL of the antibody and 50 μL of the cell (the amount of each cell added into a 96-well V-shaped plate being 2E+05 cells/well) were respectively added in the 96-well V-shaped plate; and incubation in dark was performed on ice for 30 min. Centrifugation (300 g/5 min) was performed; supernatant was discarded; 200 μL of the FCM buffer was added for washing once; centrifugation (300 g/5 min) was performed; and the supernatant was discarded. […] Centrifugation (300 g/5 min) was performed; supernatant was discarded; 200 μL of the FCM buffer was added once for washing once; centrifugation (300 g/5 min) was performed; and the supernatant was discarded. 100 μL of the 1×PBS was added for resuspending, and on-machine detection was performed.

Row | Binder | Span (hTIGIT-hFc) | epitope binning signal (name and unit not given) [1] | Span [2]
1 | Tigit-5 mouse monoclonal antibody (antibody, V domains shown, Mouse monoclonal antibody from hybridoma) VH: QVQLQQPGAELVRPGASVKLSCKASGYSFTSYWMNWVKQRPGQGLEWIGMIRPSDSETRLNQMFKDKATLTVDKSSSTAYMQLSSPTSDDSAVYYCAGIHDYGHGAYWGQGTLVTVSA VL: DIQMIQSPASLSVSVGETVTITCRASENIYSNLAWYQQKQGKSPQLLVYAASHLPDGVPSRFSGSGSGTQYSLKINSLQSEDFGSYYCQHFWGTPRTFGGGTKLEIKR | 212 MFI-APC | 0.668 | 21000 MFI-PE
2 | 3Tigit-12 mouse monoclonal antibody (antibody, V domains shown, Mouse monoclonal antibody from hybridoma) VH: QVQLQQSGAELVRPGTSVKMSCKAAGYTFTNYWIGWVKQRPGHGLEWIGDIYPGGGYTNYDEKFKGKATLTADTSSRTAYMQLSSLTSEDSAIYHCVNGGYGSTYGYFDVWGAGTTVTVSS VL: DIVMSQSPSSLPVSVGEKVTMSCKSSQSLLFSSDQKNYLAWYQQKPGQSPKLLIYWASTRESGVPDRLTGSGSGTDFTLTISSVKAEDLAVYYCQQYHKYPFTFGGGTKLEIKR | 278 MFI-APC | 0.0196 | 
3 | 3Tigit-16 mouse monoclonal antibody (antibody, V domains shown, Mouse monoclonal antibody from hybridoma) VH: EVQLQQSGPELVKPGASVKMSCKASGFTFTDYFMDWVKQSRGASFEWIGRLNPNNGRTSYNQKFKGKATLTVDKSSSTAYMELNSLTSEDSAVYYCARGDLGRWYFDVWGAGTTVTVSS VL: QIVLTQSPAIMSASPGEKVTMTCSASSSVSYMHWYQQKSGTSPKRWIYDTSKLASGVPTRFSGSGSGTSYSLTISSMEAEDAASYFCQQWSSNSLTFGAGTKLELKR | 215 MFI-APC | 0.0157 | 34600 MFI-PE
4 | 3Tigit-29 mouse monoclonal antibody (antibody, V domains shown, Mouse monoclonal antibody from hybridoma) VH: EVQLQQSGPELVKPGASVKISCKASGYTFTDYNMHWVKQSLGKSLEWIGYVNSFNGNTGYSQKFKSKVTLTVDRSSRTAYMDLRSLTSEDSAVFYCARSSRGGFAYWGQGTLVTVSA VL: QIVLTQSPAIMSASPGEKVTMTCSASSSVSYMHWYQQKSGTSPKRWIYDTSKLASGVPARFSGSVSGTSYSLTISSMEAEDAATYYCQQWSSNSLTFGAGTKLELKR | 327 MFI-APC | 0.0254 | 30600 MFI-PE
